From paper PMC11919686, “Structural basis for Vipp1 membrane binding: from loose coats and carpets to ring and rod assemblies” (Nature Structural & Molecular Biology, 2024)
Where a chain is given by its changes, count along the chain named.

B1: Vipp1 dL10 (truncation of aa 157–166) (natural protein, Synechocystis sp. PCC 6803, UniProt Q55707 1-267, looked up)
chain: MGLFDRLGRVVRANLNDLVSKAEDPEKVLEQAVIDMQEDLVQLRQAVARTIAEEKRTEQRLNQDTQEAKKWEDRAKLALTNGEENLAREALARKKSLTDTAAAYQTQLAQQRTMSENLRRNLAALEAKISEAKTKKNMLQARAKAAKANAELQQTLAFERMENKVLDMEATSQAAGELAGFGIENQFAQLEASSGVEDELAALKASMAGGALPGTSAATPQLEAAPVDSSVPANNASQDDAVIDQELDDLRRRLNNL
notes: Vipp1 (sll0617) of Synechocystis sp; PCC 6803 with aa 157–166 (hinge 2) deleted; The methods describe the purification and tag cleavage only for Vipp1 and Vipp1 (α1–α6); source: E. coli C41
B2: Vesicle-inducing protein in plastids 1 (Vipp1), full length, Synechocystis sp. PCC 6803 (natural protein, UniProt Q55707 1-267, looked up)
chain: MGLFDRLGRVVRANLNDLVSKAEDPEKVLEQAVIDMQEDLVQLRQAVARTIAEEKRTEQRLNQDTQEAKKWEDRAKLALTNGEENLAREALARKKSLTDTAAAYQTQLAQQRTMSENLRRNLAALEAKISEAKTKKNMLQARAKAAKANAELQQTLGGLGTSSATSAFERMENKVLDMEATSQAAGELAGFGIENQFAQLEASSGVEDELAALKASMAGGALPGTSAATPQLEAAPVDSSVPANNASQDDAVIDQELDDLRRRLNNL
notes: Vipp1 (sll0617) of Synechocystis sp; PCC 6803, full length; The C-terminal His-tag was cut off with 3C protease; residues of the 3C site may remain at the C-terminus; The deposited models hold 215 residues only; also called IM30; WT; not shown: His-tag, C-terminal, cleaved
B3: Vipp1 dL10Ala (substitution of aa 157–166 to alanine) (natural protein, Synechocystis sp. PCC 6803, UniProt Q55707 1-267, looked up)
chain: B2 chain with G157A, G158A, L159A, G160A, T161A, S162A, S163A, T165A, S166A
notes: Vipp1 (sll0617) of Synechocystis sp; PCC 6803 with the hinge 2 region (aa 157–166) replaced by ten alanines; The methods describe the denaturing purification and tag cleavage only for Vipp1 and Vipp1 (α1–α6); this mutant was probably handled in the same way; also called Vipp1dlA10; plasticity-restrained Vipp1 mutant; source: E. coli C41; reconstituted with EPL lipids or without membranes
B4: Vipp1 (α1–α6), truncation of helix α0 (aa 1–23) (domain or fragment, Synechocystis sp. PCC 6803, UniProt Q55707 24-267, looked up)
chain: DPEKVLEQAVIDMQEDLVQLRQAVARTIAEEKRTEQRLNQDTQEAKKWEDRAKLALTNGEENLAREALARKKSLTDTAAAYQTQLAQQRTMSENLRRNLAALEAKISEAKTKKNMLQARAKAAKANAELQQTLGGLGTSSATSAFERMENKVLDMEATSQAAGELAGFGIENQFAQLEASSGVEDELAALKASMAGGALPGTSAATPQLEAAPVDSSVPANNASQDDAVIDQELDDLRRRLNNL
notes: Vipp1 (sll0617) of Synechocystis sp; PCC 6803 without helix α0 (aa 1–23 truncated); The models were built from PDB 7O3W with aa 1–22 removed, whereas the construct lacks aa 1–23; Residues of the 3C site may remain at the C-terminus; also called Vipp1(α1-6); truncated Vipp1 lacking α0; not shown: His-tag, C-terminal, cleaved

How the values were obtained:
[1] = target: the molecule itself; assay: negative-staining EM; protein refolded in the absence of membranes; 2% uranyl acetate
[2] = target: the molecule itself; assay: cryo-EM structure; urea-unfolded protein added to an EPL lipid film and refolded by dialysis against 10 mM Tris-HCl pH 8.0; single-particle helical reconstruction or rotational symmetry (tubes, stacked rings, rings)
[3] = target: the molecule itself; assay: cryo-EM structure; Vipp1 (α1–α6) with and without EPL membrane reconstitution; single-particle helical reconstruction of rods

Protein | binding result [2] | other results
B1 |  | binding result [1]: binds
B2 | binds | 
B3 | binds | 
B4 |  | binding result [3]: binds
